This note sets out measurements from patent publication EP1052288A1, “Complex for transferring an anionic substance of interest into a cell” (TRANSGENE S.A., priority 1999, dated 2000).

Data set [1] is described as follows: Sizes of complexes by quasi-elastic light scattering. The format is physicochemical. To be noted: complexes (-/+) [1:4], 6 µg DNA (pTG11033), 500 µl; for Sizes in ultrafiltrated serum: ultrafiltrated foetal calf serum. As for the experimental part: Sizes of complexes prepared with a plasmid DNA (PTG11033; see EP-A 890 32, 9.6 kb) and the C1qA (4-26) peptide (see Table I) were evaluated. Complexes were formulated either in 5% glucose or in ultrafiltrated foetal calf serum (YM10 Amicon membrane). Formulation was made in 500 µl buffer, with 6 µg DNA and the quantity of peptide necessary to form a [1:4], [-:+] complex. As a control a polylysine SV40 NLS peptide was used. […] When oxidized, the dimerized C1qA peptide could form even smaller complexes, whatever the formulation buffer used. The reasonable sizes obtained in ultrafiltrated serum with C1qA peptides is an advantage for the use of this peptide rather than polylysine derivatives.
Complexes (-/+):[1:4], 6 µg DNA, 500 µl.
Size measures: quasi-elastic light scattering, COULTER N4+. [formula] [formula] [formula] [formula]

Data set [2] has as its system plasmid pTG11033. Description: Gel retardation assay (agarose gel electrophoresis). The format is binding. The method, then:
Gel retardation assay was performed with C1qA (4-26) in several buffers: PBS, TBS, 5% glucose, or ultrafiltrated serum (YM10 Amicon membrane). DNA and peptides have been mixed at charge ratios [-/+] of [1:4], [1:1] and [1:0.2].

Ends that are not written are not given here.

With “SP-1052 oxidized: When oxidized, the dimerized C1qA peptide (CRAPDGKKGEAGRPGRRGRPGLK; also: oxidized disulfide dimer; UniProt P02745 26-48, looked up, fragment)”, in data set [1], the “Sizes in 5% glucose” value is reported as 200 nm and the “Sizes in ultrafiltrated serum” value is given as 300 nm.

Regarding “SP-1052: C1qA (4-26) peptide, complexed with plasmid DNA (CRAPDGKKGEAGRPGRRGRPGLK; also: complexed with plasmid DNA; UniProt P02745 26-48, looked up, fragment)”, in data set [1], the “Sizes in 5% glucose” value was 1µm and the “Sizes in ultrafiltrated serum” value is 300-500 nm. The “retardation in DNA” value in data set [2] (charge ratio [-/+] [1:1]) was “significative retardation”. In data set [2] (charge ratio [-/+] [1:4], PBS, TBS, 5% glucose or ultrafiltrated serum, absence of visible band with ethidium bromide), the “association of DNA to the peptides” value is on record as “strong association of DNA to the peptides”.
